Results taken from the nanobody polyreactivity screen of Harvey et al. (2022).

Test: yeast display, Sf9 membrane polyspecificity reagent, FACS + sequencing; frameworks hold sequencing errors
Outline: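 Nanobodies from a synthetic yeast display library (Saccharomyces cerevisiae BJ5465), induced 36–48 hours with galactose, were stained 1 hour at 4 °C with 10% biotinylated, detergent-solubilized Sf9 membrane reagent, enriched on streptavidin microbeads, then FACS-sorted. Anti-HA (expression) and streptavidin (reagent binding) fluorescence set low and high (top ~1%) gates. Polyreactivity labels come from the gate of origin. Genes were colony-PCR amplified, MiSeq 2 × 250 sequenced and filtered by CDR length.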

Sequence | polyreactivity (PSR sort gate)
QVQLVESGGGLVQAGGSLRLSCAASGYTSAKNGMGWYRQAPGKEREFVAGISRSGSSTYYADSVKGRFTISRDNAKNTVYLQMNSLKPEDTAVYFCAADWSVFTYFYGYDYWGQGTQVTVSS | low polyreactivity
QVQLVESGGGLVQAGGSLRLSCAASGYTSYTYTMGWYRQAPGKERELVAAISRRSDTTYADSVKGRFTISRDNAKNTVYLQMNSLKPEDTAVYYCAAVRVSYRSLSKSYYWGQGTQVTVSS | high polyreactivity
QVQLVESGGGLVQAGGSLRLSCAASGYTVGNNAMGWYRQAPGKERELVARIRTNGGTTYYADSVKGRFTISRDNAKNTVYLQMNSLKPEDTAVYYCNAYRGYEYDYWGQGTQVTVSS | low polyreactivity
QVQLVESGGGLVQAGGSLRLSCAASGYTVTSNAMGWYRQAPGKERELVAAITNVGSTNYADSVKGRFTISRDNAKNTVYLQMNSLKPEDTAVYYCAADWDAVYLQTADYDYWGQGSQVTVSS | low polyreactivity
QVQLVESGGGLVQAGGSLRLSCAASGYTYWQYAMGWYRQAPGKERELVATITSRGGSTYYADSVKGRFTISRDNAKNTVYLQMNSLIPEDTAVYYCNARRRYSTRRSDYWGQGTQVTVSS | high polyreactivity
QVQLVESGGGLVQAGGSLRLSCAASGYTYYRYAMGWYRQAPGKERELVAAISSSGGTYYADSVKGRFTISRDNAKNTVYLQMNSLKPEDTAVYYSAAEGYYLYNAGLWGYDYWGQGTQVTVSS | low polyreactivity
QVQLVESGGGLVQAGGSLRLSCAASGYVMGWYRQAPGKERELVAAITRGTSTYYADSVKGRFTISRDNAKNTVYLQMNSLKPEDTAVYYCAARTPGVSVYKDGYWGQGTQVTVSS | low polyreactivity
QVQLVESGGGLVQAGGSLRLSCAASRFIFYSNAMGWYRTAPGKERELVASITGDGGTTYYADSVKGRFTISRDNAKNNVYLQMNSLKPEDTAVYYCAKDYIYRGYYTDFRYEDYDYWGQGTQVTVSS | low polyreactivity
QVQLVESGGGLVQAGGSLRLSCAASRFTFRRNAMGWYRQAPGKERELVAAITYNGGTTYYADSVKGRFTISRDNAKNTVYLQMNSLKPEDTAVYYCNAPYGRQGYDYWGQGTQVTVSS | low polyreactivity
QVQLVESGGGLVQAGGSLRLSCAASRFTFTAYAMGWYRQAPGKERELVAAITGTGGSTKYADSVKGRFTISRDNAKNSVDLQMYSLKPEDTAVYYCAAIRFTLRRMDYWGHGTQVTVSS | high polyreactivity
QVQLVESGGGLVQAGGSLRLSCAASRFYTMGWYRQAPGKERELVAAISWSGGDTYYADSVKGRFTISRDNAKNTVYLQMNSLKPEDTAVYYCAKKTIGSYVHEPYYYWGQGTQVTVSS | low polyreactivity
QVQLVESGGGLVQAGGSLRLSCAASRFYTMGWYRQAPGKERELVAAISWSGGDTYYADSVKGRFTISRDNAKNTVYLQMNSLKPVDTAVYYRAKKTIGSYVHEPYYYWGQGTQVTVSS | low polyreactivity
QVQLVESGGGLVQAGGSLRLSCAASRLIFYTYAMGWYRQAPGKETELVAAISFSGGSTYYADSVTGRFTISRDNAKNTVYLLMTSLKPEDTAVYYCAARGYYGYYYWGQGTQVTVSS | high polyreactivity
QVQLVESGGGLVQAGGSLRLSCAASRLTFQQYAMGWYRQAPGKERELVAAITSDGASTNYADSVKGRFTISRDNAKNTVYLQMNSLKPEDTAVYYCAARRRSRQYRYDYWGQGTQVTVSS | high polyreactivity
QVQLVESGGGLVQAGGSLRLSCAASRLTFRYYAMGWYRQAPGKERELVASISSSSGSTYYADSVKGRFTISRDNAKNTVYFQMNSLKPEDTAVYYCNARGWTLGADFGYWGQGTQVTVSS | low polyreactivity
QVQLVESGGGLVQAGGSLRLSCAASRRIFDHNAMGWYRQAPGKERELVAAISSSGGRTYYADSVKGRFTISRDNAKNTVYLQMNSLKPEDTAVYYCNKVRTVTTYEYWGQGTQVTVSS | high polyreactivity
QVQLVESGGGLVQAGGSLRLSCAASRRIFLWYAMGWYRQAPGKERELVASITRSGVTTYYADSVKGRFTISRDKAKNTVYLQMNSLKPEDTAVYYCNKDFRGDAIKLDVNYWGQGTQVTVSS | low polyreactivity
QVQLVESGGGLVQAGGSLRLSCAASRRTFGYYAMGWYRKAPGKEREMVAAIRSTGSTNYADSVKGRFTISRDNAKNSVYLQMNCLKPEDTAVYYCNAKRRFRYDYWGLGTQVTVSS | low polyreactivity
QVQLVESGGGLVQAGGSLRLSCAASRRTFKSSAMGWYRPEPGKERELVAAISRSGGITYYADSVKGRFTISRDNAKNTVYLQMNSLKPEDTAVYYCAAVGYQYRHRRFYYWGQGTQVTVSS | high polyreactivity
QVQLVESGGGLVQAGGSLRLSCAASRSIFRYYTMGWYRQAPGKETELVASISRGGSTNYADSVKGRFTISRDNAKNTVYLQMNSLKPEDTAVYDCAAGWTTRYFGGVDYWGQGTQVTVSS | high polyreactivity
QVQLVESGGGLVQAGGSLRLSCAASRSIFTWYAMGWYIQEPGKERELVAAITRGGSTYADSVKWRFTISRDNAKYTVYLLMNSLKPEDTAVYDCNAFYGVYDFNYWGQGTHVTVSS | low polyreactivity
QVQLVESGGGLVQAGGSLRLSCAASRSIFVPYAMGWYRQAPGKERELVAVITSGGSTYYADSVKGRFTISRDNAKNTVYLQMNSLKPEDTAVYYCNADLYYVWSTLSQFDYWGQGTQVTVSS | low polyreactivity

Sequence | polyreactivity (PSR sort gate)
QVQLVESGGGLVQAGGSLRLSCAASRSIFYDYVMGWYRQAPGKEREFVAAISWGGDSTYYADSVKGRFTISRDNAKNTVYLQMISLKPEDTAVYYCNADYPWSVVGYDYWGQGTQVTVSS | low polyreactivity
QVQLVESGGGLVQAGGSLRLSCAASRSIFYFYAMGWYRHAPWKERELVAAINSGGTTNYADSVKGRFTISRDNAKNTVYSQMNSLKPEDTAVYYCAARLLIRYYYWGQGTLVTVSS | high polyreactivity
QVQLVESGGGLVQAGGSLRLSCAASRSIFYSYALGWSRQAPGKEREWVADITITGSTYYADSVKGRFTISRDNAKNTVYLQMKSLKSEDTAVYFCNAVLAPGGYAYWGQGTQVTVSS | low polyreactivity
QVQLVESGGGLVQAGGSLRLSCAASRSTFYIYVMGWYRQAPGKERELVAAISWSGGSTYYTDSVKGRFTISRDNAKNTVYLQMNSLNPEDTAVYYCNADAHWSVWSYIIDYDYWGEGTQVTVSS | low polyreactivity
QVQLVESGGGLVQAGGSLRLSCAASRSTFYLNAMGWYRQAPGKERELVAAISSGGRTYYADSVKGRFTISRDNAKNTVYLQMNSLKPVDTAVYYCNAVRYLRGAYNYWGQGTQVTVSS | high polyreactivity
QVQLVESGGGLVQAGGSLRLSCAASRSTFYYYAMGWYRQAPGKERELVATISWSGDSTYADSVKGRFTISRDNAKNTVYLQMNRLKPEDTAVYYCATSGDWWGFRYDYLGQGTQVTVSS | low polyreactivity
QVQLVESGGGLVQAGGSLRLSCAASVFTFGQYTMGWYRQAPGKERELVAAITGSGGNTYYADSVKGRFTISRDNAKNTVYLQMNSLKPEDTAVYYCAVQWTYDQYYDYDYWGQGTQVTVSS | low polyreactivity
QVQLVESGGGLVQAGGSLRLSCAASVFTFRGNAMGWYRQAPGKERELVAAITSSDDSTYYADSVKGRFTISRDNAKNTVYLQMNSLKPEDTAVYYCAAVANGYWTYEYWGQGTQVTVSS | low polyreactivity
QVQLVESGGGLVQAGGSLRLSCAASVFTIPPYAMGWYRRAPGKERELVARITWSGDRTYYADSVKGRFTISRDNAKNTFYLQINSLKPEDTAVYYCADDSAQYYEMDYWGQGTQVTVSS | high polyreactivity
QVQLVESGGGLVQAGGSLRLSCAASVIIYHYYAMGWYRPAPGKERELVAAIDSGGSTYYADSVKGRFTISRDNAKNTVYLQMNSLKPEDTADYYCNAGPSVTSGYDYDYWGHGTQVTVSS | low polyreactivity
QVQLVESGGGLVQAGGSLRLSCAASVIIYLDNAMVWYRQAPRKEMEMVADITSSGGSTYYADSVKGRFTISRDNAKNTVSLQMNSLKPEDTAVYYCAATRPSYNDAESDYWGQGTQVTVSS | low polyreactivity
QVQLVESGGGLVQAGGSLRLSCAASVITFSYNAMGWYRQAPGKERELVAAISSNSDSTYYADSVKGRFTISRDIAKNTVYLQMNSLKPVDTAVYYCAADTPDAPDYSGFYYWGQGTQVTVSS | low polyreactivity
QVQLVESGGGLVQAGGSLRLSCAASVLTFETYAMGWYRQAPGKERELVAAISFSGDSTYYADSVKGRFTISRDNAKNTVYLQMNSLKPEDTAVYYCAAEQYYAWYIVGPDYYYWGQGTQVTVSS | high polyreactivity
QVQLVESGGGLVQAGGSLRLSCAASVRIFYRYGMGLYRQAPGKERELVASITRGGSTYYADSVKGRFTISRDNAKNTVYLQMNSLKPEDTAVYYCATKSSAGYDYWGQGTQVTVSS | low polyreactivity
QVQLVESGGGLVQAGGSLRLSCAASVRIYPYYDRGWYRQAPGKDRELVASTNYADSVKGRFTISRDNAKNTVYLQMNSLKPEDTAVYYCNKRIYGWGGSRYDYWGQGTQVTVSS | low polyreactivity
QVQLVESGGGLVQAGGSLRLSCAASVRIYRPYAMGRYRQAPGKERELVAAISGSGGSTYYADSVKGRFTISRDNAKNTVYLQMNSLKPEDTAVYYCNAAPKWSDYFYPLEYWGQGTQVTVSS | low polyreactivity
QVQLVESGGGLVQAGGSLRLSCAASVRTFEPNAMGWYRQAPGKERELVAAISSSDGSTYYADSVKGRFTISRDNAKNTVYLQMNSLKPEDTAVYYCAADAGYLYDWPYNYYYWGQGTQVTVSS | low polyreactivity
QVQLVESGGGLVQAGGSLRLSCAASVRTFNFYASGLYRQATRKQRELVAAIRRGGSTNYADSVKGRFTISRDNAKNTVYLQMNSLIREDTAVYYCNKRVWYPYWTVDYWGQGTQVTVSS | low polyreactivity
QVQLVESGGGLVQAGGSLRLSCAASVRTFSYYAMGWYRQAPGKERELVASISGGGRTNYADSVKGRFTISRDNAKKTVYLQMNSLKPEDTAVYYCAARYQITRQYKRGYWGQGNQVTVSS | high polyreactivity
QVQLVESGGGLVQAGGSLRLSCAASVRTFTPYAMGWYRQAPGKEREFVAAISIVGRKKYADSVKGRFTISRDNAKNTVYLQMNSLKPEDTEVYYCNAQDSRDRKFYWGYTRGHWGLGTQVTVSS | low polyreactivity
QVQLVESGGGLVQAGGSLRLSCAASVSIFARYAMGWYRQAPGKERELVAAITSGTSTNYADSVKGRFTISRDNAKNSVYLQMNSLKPEDTAVYYCNARHTWHQTYDYCGQGTQVTVSS | low polyreactivity
